Test results reported in PMC314469, “Protein Interaction Networks by Proteome Peptide Scanning” (PLoS Biology, 2004).

T1: Myo5 SH3 (MYO5_YEAST), Q04439
T1 chain: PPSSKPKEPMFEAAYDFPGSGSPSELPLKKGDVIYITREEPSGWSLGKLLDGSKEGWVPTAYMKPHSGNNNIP

T2: Rvs167 SH3 (RV167_YEAST), P39743
T2 chain: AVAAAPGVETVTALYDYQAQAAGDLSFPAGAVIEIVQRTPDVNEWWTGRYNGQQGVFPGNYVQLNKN

T3: Boi1 SH3 (BOI1_YEAST), P38041
T3 chain: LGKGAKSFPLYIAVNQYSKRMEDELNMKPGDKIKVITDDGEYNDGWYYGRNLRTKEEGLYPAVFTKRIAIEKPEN

T4: Yhr016c SH3 (YSC84_YEAST), P32793
T4 chain: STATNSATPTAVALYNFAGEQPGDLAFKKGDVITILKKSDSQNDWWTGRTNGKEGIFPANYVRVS

T5: Boi2 SH3 (BOI2_YEAST), P39969
T5 chain: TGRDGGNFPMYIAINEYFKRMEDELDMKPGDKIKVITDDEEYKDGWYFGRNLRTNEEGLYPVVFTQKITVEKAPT

T6: Yfr024 SH3 (LSB3_YEAST), P43603
T6 chain: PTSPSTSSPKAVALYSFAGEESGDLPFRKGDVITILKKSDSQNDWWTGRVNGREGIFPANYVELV


Biological target: T1, Myo5 SH3 (MYO5_YEAST), Q04439
Assay: SPOT array

normalised SPOT signal, Boehringer light units (BLU); mean over the file's lines of this peptide | Binder
154 | DYRPKSIPSPPNGI [YML034W 511-524]
182 | EELARVTPLTPKEY [YDL195W 1179-1192]
29.4 | EEEAKSVPPIPADQ [YOL027C 550-563]
138 | DTYARNNPDFPPQN [YDR164C 226-239]
175 | EFLIKEDPDLPPQG [YCL024W 744-757]
176 | DVNHRYPPMAPTTV [YPR008W 508-521]
587 | EEKVKRTPPLPPVP [YOL093W 10-23]
115 | EFIVKTIPVPPRDF [YER025W 296-309]
756 | EDLVKKPPFIPSPT [YDR219C 208-221]
106 | EFDLKNIPMMPAGE [YDL229W 462-475]
261 | DSYSRSRPTRPLGY [YNL165W 293-306]
135 | DSVLRQKPDKPRPI [YMR032W 380-393]
87.3 | EFDEKLPPKKPAGP [YMR072W 109-122]
110 | EEQVKSNPNRPIYW [YGR234W 292-305]
134 | EEQVKEKPNEPEGK [YLL021W 188-201]
226 | DRLSKIKPFLPQSI [YLR247C 271-284]

Biological target: T2, Rvs167 SH3 (RV167_YEAST), P39743
Assay: SPOT array

normalised SPOT signal, Boehringer light units (BLU); mean over the file's lines of this peptide | Binder
19.7 | DYRPKSIPSPPNGI [YML034W 511-524]
75.6 | EELARVTPLTPKEY [YDL195W 1179-1192]
42.8 | EEEAKSVPPIPADQ [YOL027C 550-563]
46.3 | DTYARNNPDFPPQN [YDR164C 226-239]
134 | EFLIKEDPDLPPQG [YCL024W 744-757]
52.3 | DVNHRYPPMAPTTV [YPR008W 508-521]
125 | EEKVKRTPPLPPVP [YOL093W 10-23]
30.4 | EFIVKTIPVPPRDF [YER025W 296-309]
13.6 | EDLVKKPPFIPSPT [YDR219C 208-221]
74.1 | EFDLKNIPMMPAGE [YDL229W 462-475]
354 | DSYSRSRPTRPLGY [YNL165W 293-306]
43.8 | DSVLRQKPDKPRPI [YMR032W 380-393]
32.7 | EFDEKLPPKKPAGP [YMR072W 109-122]
13.3 | EEQVKSNPNRPIYW [YGR234W 292-305]
22.8 | EEQVKEKPNEPEGK [YLL021W 188-201]
154 | DRLSKIKPFLPQSI [YLR247C 271-284]

Biological target: T3, Boi1 SH3 (BOI1_YEAST), P38041
Assay: SPOT array

normalised SPOT signal, Boehringer light units (BLU); mean over the file's lines of this peptide | Binder
75.6 | DYRPKSIPSPPNGI [YML034W 511-524]
65.7 | EELARVTPLTPKEY [YDL195W 1179-1192]
114 | EEEAKSVPPIPADQ [YOL027C 550-563]
118 | DTYARNNPDFPPQN [YDR164C 226-239]
78 | EFLIKEDPDLPPQG [YCL024W 744-757]
57.4 | DVNHRYPPMAPTTV [YPR008W 508-521]
108 | EEKVKRTPPLPPVP [YOL093W 10-23]
15 | EFIVKTIPVPPRDF [YER025W 296-309]
40.9 | EDLVKKPPFIPSPT [YDR219C 208-221]
18.6 | EFDLKNIPMMPAGE [YDL229W 462-475]
13600 | DSYSRSRPTRPLGY [YNL165W 293-306]
1240 | DSVLRQKPDKPRPI [YMR032W 380-393]
40.4 | EFDEKLPPKKPAGP [YMR072W 109-122]
149 | EEQVKSNPNRPIYW [YGR234W 292-305]
25.7 | EEQVKEKPNEPEGK [YLL021W 188-201]
804 | DRLSKIKPFLPQSI [YLR247C 271-284]

biological target: Sho1 SH3 (SHO1_YEAST), P40073; assay: SPOT array
Sequence (P40073 295-366): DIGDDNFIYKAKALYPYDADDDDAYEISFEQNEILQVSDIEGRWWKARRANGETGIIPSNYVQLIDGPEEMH

normalised SPOT signal, Boehringer light units (BLU); mean over the file's lines of this peptide | Binder
23.7 | DYRPKSIPSPPNGI [YML034W 511-524]
54.5 | EELARVTPLTPKEY [YDL195W 1179-1192]
10.6 | EEEAKSVPPIPADQ [YOL027C 550-563]
4.9 | DTYARNNPDFPPQN [YDR164C 226-239]
65.4 | EFLIKEDPDLPPQG [YCL024W 744-757]
39.1 | DVNHRYPPMAPTTV [YPR008W 508-521]
48.2 | EEKVKRTPPLPPVP [YOL093W 10-23]
57.2 | EFIVKTIPVPPRDF [YER025W 296-309]
17.6 | EDLVKKPPFIPSPT [YDR219C 208-221]
37.1 | EFDLKNIPMMPAGE [YDL229W 462-475]
52.1 | DSYSRSRPTRPLGY [YNL165W 293-306]
26.5 | DSVLRQKPDKPRPI [YMR032W 380-393]
38.9 | EFDEKLPPKKPAGP [YMR072W 109-122]
24.8 | EEQVKSNPNRPIYW [YGR234W 292-305]
30.7 | EEQVKEKPNEPEGK [YLL021W 188-201]
237 | DRLSKIKPFLPQSI [YLR247C 271-284]

Biological target: T4, Yhr016c SH3 (YSC84_YEAST), P32793
Assay: SPOT array

normalised SPOT signal, Boehringer light units (BLU); mean over the file's lines of this peptide | Binder
36.2 | DYRPKSIPSPPNGI [YML034W 511-524]
11.8 | EELARVTPLTPKEY [YDL195W 1179-1192]
56.7 | EEEAKSVPPIPADQ [YOL027C 550-563]
39.1 | DTYARNNPDFPPQN [YDR164C 226-239]
51.8 | EFLIKEDPDLPPQG [YCL024W 744-757]
15.7 | DVNHRYPPMAPTTV [YPR008W 508-521]
45.9 | EEKVKRTPPLPPVP [YOL093W 10-23]
44.4 | EFIVKTIPVPPRDF [YER025W 296-309]
2.1 | EDLVKKPPFIPSPT [YDR219C 208-221]
32.3 | EFDLKNIPMMPAGE [YDL229W 462-475]
177 | DSYSRSRPTRPLGY [YNL165W 293-306]
9.2 | DSVLRQKPDKPRPI [YMR032W 380-393]
16.2 | EFDEKLPPKKPAGP [YMR072W 109-122]
30.2 | EEQVKSNPNRPIYW [YGR234W 292-305]
23.2 | EEQVKEKPNEPEGK [YLL021W 188-201]
37.2 | DRLSKIKPFLPQSI [YLR247C 271-284]

Biological target: T5, Boi2 SH3 (BOI2_YEAST), P39969
Assay: SPOT array

normalised SPOT signal, Boehringer light units (BLU); mean over the file's lines of this peptide | Binder
6 | DYRPKSIPSPPNGI [YML034W 511-524]
41.9 | EELARVTPLTPKEY [YDL195W 1179-1192]
4.5 | EEEAKSVPPIPADQ [YOL027C 550-563]
31.6 | DTYARNNPDFPPQN [YDR164C 226-239]
69.1 | EFLIKEDPDLPPQG [YCL024W 744-757]
34 | DVNHRYPPMAPTTV [YPR008W 508-521]
17.7 | EEKVKRTPPLPPVP [YOL093W 10-23]
13.8 | EFIVKTIPVPPRDF [YER025W 296-309]
17.3 | EDLVKKPPFIPSPT [YDR219C 208-221]
9.1 | EFDLKNIPMMPAGE [YDL229W 462-475]
37.1 | DSYSRSRPTRPLGY [YNL165W 293-306]
10.2 | DSVLRQKPDKPRPI [YMR032W 380-393]
2 | EFDEKLPPKKPAGP [YMR072W 109-122]
23.1 | EEQVKSNPNRPIYW [YGR234W 292-305]
28.7 | EEQVKEKPNEPEGK [YLL021W 188-201]
16.3 | DRLSKIKPFLPQSI [YLR247C 271-284]

Biological target: T6, Yfr024 SH3 (LSB3_YEAST), P43603
Assay: SPOT array

normalised SPOT signal, Boehringer light units (BLU); mean over the file's lines of this peptide | Binder
38.5 | DYRPKSIPSPPNGI [YML034W 511-524]
25.2 | EELARVTPLTPKEY [YDL195W 1179-1192]
0 | EEEAKSVPPIPADQ [YOL027C 550-563]
17.2 | DTYARNNPDFPPQN [YDR164C 226-239]
8.1 | EFLIKEDPDLPPQG [YCL024W 744-757]
21.3 | DVNHRYPPMAPTTV [YPR008W 508-521]
99 | EEKVKRTPPLPPVP [YOL093W 10-23]
202 | EFIVKTIPVPPRDF [YER025W 296-309]
0 | EDLVKKPPFIPSPT [YDR219C 208-221]
112 | EFDLKNIPMMPAGE [YDL229W 462-475]
2260 | DSYSRSRPTRPLGY [YNL165W 293-306]
114 | DSVLRQKPDKPRPI [YMR032W 380-393]
72.6 | EFDEKLPPKKPAGP [YMR072W 109-122]
140 | EEQVKSNPNRPIYW [YGR234W 292-305]
0 | EEQVKEKPNEPEGK [YLL021W 188-201]
136 | DRLSKIKPFLPQSI [YLR247C 271-284]
